Some targets named below: FleN^A139V; FleN^L260R; FleN^R218C; FleN^V24L.
Test in all cases: bacterial two-hybrid (β-galactosidase activity)
Settings in all cases: in vivo, E. coli BTH101; T18 and T25 fusions; parent: est. 1400; read off a plot

Take wild-type FleN A139V: the response (Miller unites) with FleN^A139V amounted to 870. For the substance wild-type FleN L260R, the response (Miller unites) in the test with FleN^L260R came to 1000. wild-type FleN R218C: the response (Miller unites) with FleN^R218C turned out to be 1200. As to wild-type FleN V24L, the response (Miller unites) in the test with FleN^V24L is 130.

The values are drawn from publication PMC12345224.
